Data published in patent US7892775B2, “Fluorescence assay for kinase activity” (Massachusetts Institute of Technology, priority 2003, dated 2011).
Marks after values point to notes of the source that are not given here. Sox = metal binding amino acid

Assays:
Protein Kinase Cα = Protein Kinase Cα (Homo sapiens, UniProt P17252); details: 20 mM HEPES pH 7.4, 10 mM MgCl2, 0.3 mM CaCl2, 1 mM ATP, 0.7 nM PKCα, 30° C.; average of four Hanes plots
Description: PKC: On the day of the assay, a 1 μl aliquot of Protein Kinase Cα (Human, Recombinant, Calbiochem) was diluted with 20 μl of solution 4 and stored on ice. A typical reaction contained solution 4 (84 μl), solution 6 (19 μl), solution 8 (5 μl), solution 7 (1 μl), and enzyme working stock (1 μl). An appropriate volume of substrate stock solution was added to begin the reaction.
Fluorescence experiments were performed on a Fluoromax 3 from Jobin Yvon. 5 nm emission and excitation slit widths were used. For all experiments, an excitation wavelength of 360 nm was used. Enzyme assays were performed by monitoring emission at 485 nm.
To solve for Km and Vmax for this reaction, determination of the initial rate of product formation from the increase in fluorescence intensity is necessary. With this sensor, a correction for the decrease in fluorescence intensity due to the starting material being consumed is needed to determine the rate of product formation from the initial slope. The fluorescence intensity at any given point can be determined from the following equation: I(t)=fSS(t)+fPP(t) (1) where I(t) is the fluorescence intensity, S(t) is the amount of substrate in μM, P(t) is the amount of product in μM, fS is the fluorescence intensity per μM) of substrate, and fP is fluorescence intensity per μM of product. The amount of substrate and product at any given point are related by: S(t)+P(t)=S0 (2) where S0 is the initial amount of substrate. Substitution of (2) into (I) followed by rearrangement, yields:
The initial slope of the reaction, dI(t)/dt, was measured within the first 5% of substrate turnover. The constants fP and fS were calculated from the slope of a line of fluorescence intensity versus concentration of P and S, respectively. A linear fit of a Hanes plot ([…]) was used to find Km and Vmax.

[1] = target: T1, cAMP-dependent Protein Kinase (Catalytic Subunit) (Mus musculus, UniProt P05132); assay: Continuous fluorescence kinase assay, kinetic constants of Sox peptide substrate with PKA; type: biochemical; details: 20 mM HEPES pH 7.4, 10 mM MgCl2, 1 mM ATP, 1 mM DTT, 40 units PKA, 30° C.; average of four Hanes plots
T1 construct: purchased Calbiochem
Description: A typical reaction contained solution 5 (90 μl), solution 6 (20 μl), solution 7 (1 μl) and an appropriate volume of substrate stock solution. Enzyme working stock (1 μl) was added to begin the reaction.
5 nm emission and excitation slit widths were used.
Substitution of (2) into (I) followed by rearrangement, yields: […]

## Ac-Sox-Pro-Gly-Thr-Phe-Arg-Arg-Arg-NH2 ({Ac-Sox}-PGTFRRR-NH2) [Ac-Sox-PGT*FRRR-NH2]
Protein Kinase Cα
  Km: 23 ± 3 µM
  Vmax: 2.3 ± 0.6^d μmol/min/mg

## Ac-Leu-Arg-Arg-Ala-Ser-Leu-Pro-Sox-NH2 (Ac-LRRASLP-{Sox-NH2}) [Ac-LRRAS*LP-Sox-NH2, Sox-containing peptide substrate (sensor) for PKA]
[1]
  Km: 1.8 ± 0.5 µM
  Vmax: 3.7 ± 1.6^f μmol/min/mg

## Ac-Sox-Pro-Gly-Ser-Phe-Arg-Arg-Arg-NH2 [Ac-Sox-PGS*FRRR-NH2]
Protein Kinase Cα
  Km: 8.6 ± 2.9 µM
  Vmax: 5.9 ± 1.9^d μmol/min/mg
